Here are results for one molecule from patent US20190330313A1 (HANX BIOPHARMACEUTICS, published 2019).

One experiment concerns the target T1, PD-1-his antigen (UniProt Q15116 25-167, limits assumed).
T1 construct: not shown: his tag
Put plainly: ELISA, PD-1-his coated at 0.25 µg/ml. As to the method:
An ELISA plate was coated with PD-1-his antigen in a concentration of 0.25 μg/ml (100 μl per well) by incubation at 4° C. overnight.
The ELISA plate coated with the PD-1-his antigen was blocked with 1% BSA in the PBS buffer at 37° C. for 2 hours and washed with 1×PBST buffer containing 1% Tween-20 for three times, with gently patting to dryness.
Background: An ELISA detects its analyte on a solid surface through an enzyme-linked reagent.

The target in experiment [1] is T2, PD-1-hIgGFc antigen (human, UniProt Q15116 25-167, limits assumed).
T2 construct: not shown: human IgG Fc (hIgGFc)
T2 sequence (Q15116 25-167 limits assumed): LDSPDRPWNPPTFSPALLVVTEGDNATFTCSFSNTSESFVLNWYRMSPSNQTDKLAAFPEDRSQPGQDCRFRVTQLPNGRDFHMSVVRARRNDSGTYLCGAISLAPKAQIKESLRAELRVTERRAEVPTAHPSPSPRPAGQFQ
Put plainly: competitive ELISA, PD-1-hIgGFc coated, competitor PDL2-his tag 0.5 µg/ml. On the procedure: A 96-well ELISA plate was coated with PD-1-hIgGFc antigen in a concentration of 1.0 μg/ml (100 μl per well) by incubation at 4° C. overnight.
After the 96-well ELISA plate was washed with the PBST buffer for five times and gently patted to dryness, HRP-conjugated monoclonal mouse anti-his tag as a secondary antibody in 1:750 dilution (50 μl per well) was added for incubation at 37° C. for 1 hour.

For experiment [2], the target named is T2, PD-1-hIgGFc antigen. Briefly: competitive ELISA, PD-1-hIgGFc coated, competitor PDL1-mIgG2aFc 0.3 µg/ml. As to the method:
A 96-well ELISA plate was coated with PD-1-hIgGFc antigen in a concentration of 0.5 μg/ml (50 μl per well) by incubation at 4° C. overnight.

T1 sequence (Q15116 25-167 limits assumed): as above

B1: humanized H8L2 antibody (IgG-like antibody H8L2 against PD-1) (antibody)
heavy: EVQLVQSGGGLVQPGGSLKLSCAASGFTFSSYGMSWVRQAPGKGLDWVATISGGGRDTYYPDSVKGRFTISRDNSKNNLYLQMNSLRAEDTALYYCARQKGEAWFAYWGQGTLVTVSSASTKGPSVFPLAPCSRSTSESTAALGCLVKDYFPEPVTVSWNSGALTSGVHTFPAVLQSSGLYSLSSVVTVPSSSLGTKTYTCNVDHKPSNTKVDKRVESKYGPPCPPCPAPEFLGGPSVFLFPPKPKDTLMITRTPEVTCVVVDVSQEDPEVQFNWYVDGVEVHNAKTKPREEQFNSTYRVVSVLTPLHQDWLNGKEYKCKVSNKGLPSSIEKTISKAKGQPREPQVYTLPPSQEEMTKNQVSLTCLVKGFYPSDIAVEWESNGQPENNYKTTPPVLDSDGSFFLYSRLTVDKSRWQEGNVFSCSVMHEALHAHYTQKSLSLSLGK
light: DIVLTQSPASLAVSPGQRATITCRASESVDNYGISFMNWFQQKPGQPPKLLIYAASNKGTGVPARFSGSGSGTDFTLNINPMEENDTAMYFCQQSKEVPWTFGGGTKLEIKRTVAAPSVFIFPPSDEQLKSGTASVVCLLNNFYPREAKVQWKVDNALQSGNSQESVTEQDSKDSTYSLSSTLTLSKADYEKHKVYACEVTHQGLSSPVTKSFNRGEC
notes: Expressed in 293 cells and purified on protein A; also called 18A10 H8L2
Regarding B1, the EC50 (in general, the midpoint of the concentration-response curve) with PD-1-his antigen amounted to 40 pM; in the experiment with PD-1-hIgGFc antigen [1], 1830 pM; with PD-1-hIgGFc antigen [2], 474 pM.
